Tested on: Escherichia coli TOP10
Assay: shrunken log2 fold change of peptide-encoding DNA abundance (4.5 h post-induction vs induction); higher = less antimicrobial activity (less host growth inhibition)
Conditions: time post-induction: 4.5 h; library: site-saturation at positions 5, 18, 19, 20
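Note: peptides expressed intracellularly from a pBAD plasmid library in pooled LB shake-flask culture, induced with 0.3% L-arabinose, DNA abundance read by NGS, three biological replicates, DESeq2 with apeglm shrinkage.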

Sequence	shrunken log2 fold change
RRIRDRPPRLPRPRPRPMERPRP	-0.0122
RRIRNRPPRLPRPRPRPISKPRP	-0.472
RRIRKRPPRLPRPRPRPNYHPRP	-0.331
RRIRERPPRLPRPRPRPDYHPRP	-0.486
RRIRMRPPRLPRPRPRPRITPRP	0.122
RRIRTRPPRLPRPRPRPCWIPRP	-0.1
RRIRPRPPRLPRPRPRPPANPRP	0.418
RRIRERPPRLPRPRPRPRDCPRP	0.112
RRIRCRPPRLPRPRPRPNTEPRP	-0.161
RRIRMRPPRLPRPRPRPSVCPRP	0.386
RRIRPRPPRLPRPRPRPCFRPRP	0.00938
RRIRFRPPRLPRPRPRPWRTPRP	-0.0041
RRIRHRPPRLPRPRPRPNWSPRP	-0.0165
RRIRFRPPRLPRPRPRPMYGPRP	-0.36
RRIRPRPPRLPRPRPRPQNAPRP	-0.0677
RRIRKRPPRLPRPRPRPAVTPRP	0.0318
RRIRHRPPRLPRPRPRPCAPPRP	0.0642
RRIRSRPPRLPRPRPRPTDPPRP	-0.000503
RRIRARPPRLPRPRPRPHQVPRP	-0.17
RRIRYRPPRLPRPRPRPDPHPRP	-0.356
RRIRSRPPRLPRPRPRPIKPPRP	0.0213
RRIRERPPRLPRPRPRPMKIPRP	0.0286
RRIRVRPPRLPRPRPRPLEMPRP	-0.308
RRIRERPPRLPRPRPRPFKEPRP	-0.346
RRIRPRPPRLPRPRPRPSYPPRP	-0.181

Sequence	shrunken log2 fold change
RRIRRRPPRLPRPRPRPNDQPRP	0.261
RRIRERPPRLPRPRPRPEINPRP	-0.2
RRIRWRPPRLPRPRPRPQEDPRP	-0.0221
RRIRWRPPRLPRPRPRPTSGPRP	0.593
RRIRWRPPRLPRPRPRPRHGPRP	-0.192
RRIRKRPPRLPRPRPRPQQDPRP	0.179
RRIRHRPPRLPRPRPRPQYHPRP	-0.972
RRIRIRPPRLPRPRPRPFPIPRP	0.0234
RRIRFRPPRLPRPRPRPMLAPRP	0.0819
RRIRERPPRLPRPRPRPPCKPRP	-0.208
RRIRWRPPRLPRPRPRPHKDPRP	-0.115
RRIRRRPPRLPRPRPRPRAFPRP	0.605
RRIRKRPPRLPRPRPRPFYAPRP	-0.0279
RRIRCRPPRLPRPRPRPYYDPRP	-0.361
RRIRARPPRLPRPRPRPCSQPRP	-0.172
RRIRPRPPRLPRPRPRPACVPRP	0.26
RRIRVRPPRLPRPRPRPDADPRP	0.793
RRIRLRPPRLPRPRPRPMQHPRP	0.256
RRIRHRPPRLPRPRPRPWGSPRP	-0.356
RRIRGRPPRLPRPRPRPGVLPRP	0.912
RRIRNRPPRLPRPRPRPRDEPRP	-0.0923
RRIRLRPPRLPRPRPRPSQVPRP	-0.573
RRIRYRPPRLPRPRPRPVLFPRP	-0.598
RRIRWRPPRLPRPRPRPGSPPRP	0.0119
RRIRCRPPRLPRPRPRPEITPRP	0.0771

Sequence	shrunken log2 fold change
RRIRRRPPRLPRPRPRPHDIPRP	-0.127
RRIRERPPRLPRPRPRPWVYPRP	-0.157
RRIRFRPPRLPRPRPRPSNWPRP	-0.284
RRIRERPPRLPRPRPRPEVFPRP	0.0133
RRIRMRPPRLPRPRPRPNNAPRP	-0.0978
RRIRQRPPRLPRPRPRPFYTPRP	-0.589
RRIRDRPPRLPRPRPRPMSFPRP	-0.00238
RRIRWRPPRLPRPRPRPRKIPRP	0.491
RRIRVRPPRLPRPRPRPVTYPRP	-0.288
RRIRQRPPRLPRPRPRPWCGPRP	-0.00744
RRIRARPPRLPRPRPRPTQWPRP	0.457
RRIRERPPRLPRPRPRPGTVPRP	-0.973
RRIRARPPRLPRPRPRPKTAPRP	0.0481
RRIRWRPPRLPRPRPRPNSGPRP	0.0642
RRIRIRPPRLPRPRPRPWFNPRP	-1.25
RRIRHRPPRLPRPRPRPEYGPRP	-0.0913
RRIRWRPPRLPRPRPRPTSYPRP	-0.103
RRIRWRPPRLPRPRPRPYACPRP	-0.355
RRIRNRPPRLPRPRPRPAHCPRP	-0.424
RRIRDRPPRLPRPRPRPCEDPRP	-0.0105
RRIRRRPPRLPRPRPRPGTPPRP	0.435
RRIRRRPPRLPRPRPRPQDRPRP	0.0852
RRIRTRPPRLPRPRPRPPWNPRP	-0.288
RRIRSRPPRLPRPRPRPARYPRP	-0.0163
RRIRWRPPRLPRPRPRPSAMPRP	0.252

Sequence	shrunken log2 fold change
RRIRSRPPRLPRPRPRPDLPPRP	-0.246
RRIRRRPPRLPRPRPRPHTRPRP	0.145
RRIRLRPPRLPRPRPRPIQYPRP	0.147
RRIRCRPPRLPRPRPRPMIQPRP	-0.417
RRIRTRPPRLPRPRPRPARPPRP	0.883
RRIRRRPPRLPRPRPRPNMWPRP	-0.253
RRIRKRPPRLPRPRPRPWTDPRP	-0.00992
RRIRSRPPRLPRPRPRPSAYPRP	-0.0159
RRIRQRPPRLPRPRPRPTSSPRP	0.088
RRIRFRPPRLPRPRPRPPDFPRP	-0.195
RRIRDRPPRLPRPRPRPTPEPRP	0.152
RRIRTRPPRLPRPRPRPHEDPRP	-0.183
RRIRTRPPRLPRPRPRPFHIPRP	0.0392
RRIRIRPPRLPRPRPRPQSAPRP	0.0313
RRIRTRPPRLPRPRPRPQNCPRP	-0.373
RRIRMRPPRLPRPRPRPLEFPRP	-0.102
RRIRRRPPRLPRPRPRPTKNPRP	0.395
RRIRIRPPRLPRPRPRPTKPPRP	-0.0472
RRIRFRPPRLPRPRPRPHLTPRP	-0.226
RRIRIRPPRLPRPRPRPSFFPRP	-0.654
RRIRKRPPRLPRPRPRPTHEPRP	0.267
RRIRLRPPRLPRPRPRPTHKPRP	0.38
RRIRPRPPRLPRPRPRPFINPRP	-0.382
RRIRNRPPRLPRPRPRPPNDPRP	0.182
RRIRCRPPRLPRPRPRPMDVPRP	-0.00136

Sequence	shrunken log2 fold change
RRIRRRPPRLPRPRPRPRSIPRP	-0.0781
RRIRPRPPRLPRPRPRPFLQPRP	-0.207
RRIRPRPPRLPRPRPRPNHNPRP	-0.755
RRIRPRPPRLPRPRPRPHILPRP	-0.381
RRIRTRPPRLPRPRPRPGFTPRP	-0.0298
RRIRPRPPRLPRPRPRPIFEPRP	0.154
RRIRWRPPRLPRPRPRPPCHPRP	0.0912
RRIRMRPPRLPRPRPRPFDVPRP	0.268
RRIRHRPPRLPRPRPRPPPNPRP	0.814
RRIRFRPPRLPRPRPRPANRPRP	-0.0406
RRIRQRPPRLPRPRPRPDHTPRP	-0.0589
RRIRMRPPRLPRPRPRPMYLPRP	-0.0638
RRIRHRPPRLPRPRPRPWRRPRP	-0.0609
RRIRCRPPRLPRPRPRPEWYPRP	-0.256
RRIRLRPPRLPRPRPRPQRKPRP	0.198
RRIRRRPPRLPRPRPRPLLTPRP	0.399
RRIRLRPPRLPRPRPRPKGNPRP	-0.0951
RRIRYRPPRLPRPRPRPGVCPRP	-0.0493
RRIRDRPPRLPRPRPRPMWTPRP	0.217
RRIRQRPPRLPRPRPRPKWCPRP	-0.0936
RRIRIRPPRLPRPRPRPADYPRP	-0.635
RRIRGRPPRLPRPRPRPTKSPRP	0.583
RRIRSRPPRLPRPRPRPDKMPRP	-0.15
RRIRHRPPRLPRPRPRPNMAPRP	-0.0808
RRIRKRPPRLPRPRPRPPSLPRP	0.46

Sequence	shrunken log2 fold change
RRIRLRPPRLPRPRPRPHYQPRP	-0.361
RRIRTRPPRLPRPRPRPTPVPRP	0.313
RRIRRRPPRLPRPRPRPNYLPRP	0.305
RRIRPRPPRLPRPRPRPGMYPRP	-0.0544
RRIRGRPPRLPRPRPRPCMVPRP	0.304
RRIRTRPPRLPRPRPRPMDMPRP	0.0382
RRIRARPPRLPRPRPRPNSLPRP	-0.207
RRIRHRPPRLPRPRPRPWIAPRP	0.143
RRIRCRPPRLPRPRPRPCGPPRP	-0.104
RRIRCRPPRLPRPRPRPAHYPRP	-0.127
RRIRFRPPRLPRPRPRPAHRPRP	0.418
RRIRERPPRLPRPRPRPLYSPRP	-0.54
RRIRARPPRLPRPRPRPFRAPRP	0.0497
RRIRGRPPRLPRPRPRPWCHPRP	-0.0582
RRIRQRPPRLPRPRPRPFQSPRP	-0.0102
RRIRDRPPRLPRPRPRPSPCPRP	-0.0819
RRIRARPPRLPRPRPRPYYVPRP	-0.169
RRIRFRPPRLPRPRPRPKPQPRP	0.384
RRIRMRPPRLPRPRPRPSRPPRP	0.764
RRIRIRPPRLPRPRPRPIELPRP	0.0658
RRIRTRPPRLPRPRPRPEAVPRP	-0.0221
RRIRQRPPRLPRPRPRPGSLPRP	0.143
RRIRIRPPRLPRPRPRPEWVPRP	0.00655
RRIRIRPPRLPRPRPRPECAPRP	-0.0969
RRIRARPPRLPRPRPRPEYEPRP	0.262
